Data on eight molecules can be found in patent US6642355B2, “Endothelin-antagonizing peptide” (priority 1991, dated 2003).

Bridge positions count the residues as written; N and C are the ends. Square brackets hold non-standard residues; d marks the D form. Ends that are not written are not given here. 2Nal = N[C@@H](Cc1ccc2ccccc2c1)C(=O)O

A word on the IC50: it is the midpoint of a concentration-inhibition curve. A low value points to greater potency in that assay.

The chains are these.
B1: Compound (I-18) (peptide)
peptide: GNWHGTAPDWFFNYYWW
modifications: lactam N-9
B2: Compound (I-20) (peptide)
peptide: GNWHGTAPDWFFNYYWVYFAHLDIIW
modifications: lactam N-9
B3: Compound (I-17) (peptide)
peptide: GNWHGTAPDWFFNYY
modifications: lactam N-9
B4: Compound (I-19) (peptide)
peptide: GNWHGTAPDWFFNYYWWFFNYYW
modifications: lactam N-9
B5: Compound (I-49) (peptide)
peptide: GNWHGTAPDWFFNYY[2Nal]-OH
modifications: lactam N-9

One test has as its target endothelin receptor of bovine cerebellar tissue (membrane fraction) (bovine). The test can be described thus: 125I-endothelin-1 displacement, bovine cerebellar membrane fraction.
For the molecule B1, the IC50 is 36 nM.

Consider B2, for which the IC50 was 300 nM. On the same count and under the same terms, the result for B3 reads 54 nM; that for B4, 370 nM; that for B5, 6.3 nM.

The target of a further test is T1, endothelin receptor (Bos taurus, UniProt P28088).
T1 construct: from tissue; host or cells: bovine cerebellar membrane fraction
T1 sequence (P28088 27-441): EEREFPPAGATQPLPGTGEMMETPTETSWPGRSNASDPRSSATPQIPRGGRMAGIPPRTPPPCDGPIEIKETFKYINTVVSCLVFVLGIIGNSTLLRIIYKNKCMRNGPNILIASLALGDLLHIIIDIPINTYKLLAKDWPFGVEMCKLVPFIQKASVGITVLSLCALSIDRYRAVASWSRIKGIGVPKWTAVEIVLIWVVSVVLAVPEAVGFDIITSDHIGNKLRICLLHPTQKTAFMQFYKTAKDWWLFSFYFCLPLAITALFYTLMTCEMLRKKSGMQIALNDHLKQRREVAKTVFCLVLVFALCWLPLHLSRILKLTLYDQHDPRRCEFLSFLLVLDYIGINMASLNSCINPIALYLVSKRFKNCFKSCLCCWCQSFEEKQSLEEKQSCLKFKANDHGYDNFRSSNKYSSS
Description: Endothelin receptor-antagonizing effect: 125I-endothelin-1 binding to bovine cerebellar tissue membrane fraction.
On to `CC[C@H](C)[C@H](NC(=O)[C@H](CC(=O)O)NC(=O)[C@H](CC(C)C)NC(=O)[C@H](Cc1c[nH]cn1)NC(=O)[C@H](C)NC(=O)[C@H](Cc1ccccc1)NC(=O)[C@H](Cc1ccc(O)cc1)NC(=O)[C@@H](NC(=O)[C@H](Cc1c[nH]c2ccccc12)NC(=O)[C@H](CC(=O)O)NC(=O)[C@@H]1CCCN1C(=O)[C@H](C)NC(=O)[C@@H](NC(=O)CNC(=O)[C@H](Cc1c[nH]cn1)NC(=O)[C@H](Cc1c[nH]c2ccccc12)NC(=O)[C@H](CC(=O)O)NC(=O)CN)[C@@H](C)O)C(C)C)C(=O)N[C@H](C(=O)N[C@@H](Cc1c[nH]c2ccccc12)C(=O)O)[C@@H](C)CC` [Compound I-43], for which the IC50 was 0.63 nM. This lies in the sub-nanomolar range.

With `CC[C@H](C)[C@H](NC(=O)[C@H](CC(=O)O)NC(=O)[C@H](CC(C)C)NC(=O)[C@H](Cc1c[nH]cn1)NC(=O)[C@H](C)NC(=O)[C@H](Cc1ccccc1)NC(=O)[C@H](Cc1ccc(O)cc1)NC(=O)[C@@H](NC(=O)[C@H](Cc1c[nH]c2ccccc12)NC(=O)[C@H](CC(=O)O)NC(=O)[C@@H]1CCCN1C(=O)[C@H](C)NC(=O)[C@@H](NC(=O)CNC(=O)[C@H](CCCCN)NC(=O)[C@H](Cc1c[nH]c2ccccc12)NC(=O)[C@H](CC(N)=O)NC(=O)CN)[C@@H](C)O)C(C)C)C(=O)N[C@H](C(=O)N[C@@H](Cc1c[nH]c2ccccc12)C(=O)O)[C@@H](C)CC` [Compound I-44], the IC50 is 0.29 nM. On the same count and under the same terms, then `C[C@@H]1NC(=O)[C@H]([C@@H](C)O)NC(=O)CNC(=O)[C@H](Cc2c[nH]cn2)NC(=O)[C@H](Cc2c[nH]c3ccccc23)NC(=O)[C@H](CC(N)=O)NC(=O)CNC(=O)C[C@@H](C(=O)N[C@@H](Cc2c[nH]c3ccccc23)C(=O)N[C@@H](Cc2ccccc2)C(=O)N[C@@H](Cc2ccccc2)C(=O)N[C@@H](CC(N)=O)C(=O)N[C@@H](Cc2ccc(O)cc2)C(=O)N[C@@H](Cc2ccc(O)cc2)C(=O)N[C@@H](Cc2ccc3ccccc3c2)C(=O)O)NC(=O)[C@@H]2CCCN2C1=O` [Compound I-49], with 6.3 nM.
